Data as given in US20210101992A1 (KIRA BIOTECH, published 2021).
Positions count from the first letter of the chain named.

T1: CD83-Fc (human CD83 ectodomain, Fc tagged) (human, UniProt Q01151 20-144)
T1 construct: extracellular domain; The construct is not described beyond 'hCD83 ectodomain (Fc and His tagged)'; also called hCD83-Fc; not shown: Fc tag
T1 sequence (looked up): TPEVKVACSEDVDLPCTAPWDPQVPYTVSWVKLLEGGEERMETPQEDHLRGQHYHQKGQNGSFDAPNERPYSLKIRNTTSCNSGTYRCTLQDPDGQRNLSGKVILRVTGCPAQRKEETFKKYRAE

T2: CD83-His (ectodomain of human CD83 with 6x Histidine tag) (human, UniProt Q01151 20-144)
T2 construct: extracellular domain; Expressed in mammalian cells; also called hCD83-His; recombinant CD83-His; not shown: 6x Histidine tag
T2 sequence (looked up): T1 sequence (looked up)

B1: hFab 1F7 (Fab, V domains shown)
VH: EVQLVQSGGAVVQPGRSLRLSCAASGFTFSTYGMHWVRQAPGKGLEWVAAVSYDGSNKYYADFVKGRFTISRDNPKNTLYLQMNSLRADDTAVYYCARRGGLDIWGQGTTVTVSS
VL: LTQPPPASGTPGQRVTISCSGSSSNIGSNTVNWYQQLPGTAPKLLIYGNDQRPSGVPDRFSASKSGTSASLAISGLQSEDEAHYYCAAWDGSLNGGVIFGGGTKVTLG
notes: Human Fab from a phage display library; The heavy chain carries a 6x His tag and a myc tag, and the light chain was detected as kappa; also called 1F7 hFab; 1F7 Fab
B2: hFab4.5 (Fab, V domains shown)
VH: B1 VH
VL: LTQSPLSLPVTLGQPASISCKSSQSLVDSDGNTYLNWFQQRPGQSPRRLIYKVSNRDSGVPDRFSGSGSGTDFTLKISRVEAEDVGVYYCMQGTHWPRTFGQGTKVEIKR
notes: Light chain shuffled variant of 1F7, expressed as hFab in the E. coli periplasm
B3: hFab4.8 (Fab, V domains shown)
VH: B1 VH
VL: MTQSPSSLSASVGDRVTITCQASQDISNYLNWYQQKPGKAPKLLIYDASNLETGVPSRFSGSGSGTDFTFTISSLQPDDFATYYCQQTYSWPRTFGQGTKLEIKR
notes: as for B2
B4: hFab4.4 (Fab, V domains shown)
VH: B1 VH
VL: B2 VL with L1M, K21R, D30A, Y34F, N36H, Q39H
notes: as for B2
B5: hFab4.2 (Fab, V domains shown)
VH: B1 VH
VL: MTHTPLSLSVTPGQPASISCKSSQSLLHSDGKTYLYWYLQRPGQSPQPLIYEVSNRFSGVPDRFSGSGSGTDFTLKISRVEAEDVGVYYCMQSLQLWTFGQGTKVEIKR
notes: Light chain shuffled variant of 1F7
B6: hFab4.1 (Fab, V domains shown)
VH: B1 VH
VL: VTQPPSASGTPGQRVTISCSGSSSNIGTNPVNWYQQLPGTAPKLLIYTTDQRPSGVPDRFSGSKSGTSASLAISGLQSEDEADYYCAAWDDSLSGLYVFGTGTKVTVLG
notes: as for B5
B7: hFab4.12 (Fab, V domains shown)
VH: B1 VH
VL: MTQAPVVSVALEQTVRITCQGDSLAIYYDFWYQHKPGQAPVLVIYGKNNRPSGIPHRFSGSSSNTDSLTITGAQAEDEADYYCNSRDSSGNHWVFGGGTNLTVLG
notes: as for B5
B8: hFab4.10 (Fab, V domains shown)
VH: B1 VH
VL: LTQPPSASGTPGQGVTISCRGSTSNIGNNVVNWYQHVPGSAPKLLIWSNIQRPSGIPDRFSGSKSGTSASLAISGLQSEDEAVYYCAVWDDGLAGWVFGGGTTVTVLS
notes: as for B5
B9: hFab4.9 (Fab, V domains shown)
VH: B1 VH
VL: MTQSPSSLSASVGHPVTITCRASQSLISYLNWYHQKPGKAPKLLIYAASILQSGVPSRFSGSGSGTDFTLTISSLQPENFASYYCQHTDSFPRTFGHGTKVEIKR
notes: as for B5
B10: hFab4.3 (Fab, V domains shown)
VH: B1 VH
VL: B2 VL with L1M, K21R, V27I, D28H, N36D, K76R, V85I, G93A
notes: as for B5
B11: hFab4.7 (Fab, V domains shown)
VH: B1 VH
VL: B2 VL with L1M, K21R, D28H, T33M, G93A, H95Q, W96P, P97T, R98W, V106L
notes: as for B5
B12: hFab4.18 (Fab, V domains shown)
VH: B1 VH
VL: B2 VL with S23N, D28H, S78N, H95Q, V106L, E107D
notes: as for B5

Target: BSA (Bos taurus, UniProt P02769)
Sequence (P02769 25-607 limits assumed): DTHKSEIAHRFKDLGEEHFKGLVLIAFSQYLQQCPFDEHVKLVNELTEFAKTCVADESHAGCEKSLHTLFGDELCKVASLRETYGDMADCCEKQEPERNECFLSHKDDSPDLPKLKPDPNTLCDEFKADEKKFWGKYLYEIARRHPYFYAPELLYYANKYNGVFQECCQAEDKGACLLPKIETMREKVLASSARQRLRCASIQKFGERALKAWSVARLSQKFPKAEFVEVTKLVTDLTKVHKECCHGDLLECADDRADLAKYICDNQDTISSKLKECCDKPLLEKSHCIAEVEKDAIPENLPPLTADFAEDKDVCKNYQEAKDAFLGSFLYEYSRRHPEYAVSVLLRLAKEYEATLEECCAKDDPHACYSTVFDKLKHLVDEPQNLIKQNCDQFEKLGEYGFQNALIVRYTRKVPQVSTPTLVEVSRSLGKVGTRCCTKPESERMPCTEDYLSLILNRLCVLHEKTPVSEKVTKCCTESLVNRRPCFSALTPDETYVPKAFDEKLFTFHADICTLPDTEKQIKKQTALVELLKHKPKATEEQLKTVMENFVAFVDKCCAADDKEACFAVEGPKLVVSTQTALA
Assay: ELISA on coated antigens, absorbance at 450 nm

Row | Binder | binding result
1 | B1 | no binding

Target: T1, CD83-Fc (human CD83 ectodomain, Fc …)
Assay: binding of periplasmic hFab's to CD83-Fc, normalised to binding to 9E10

Row | Binder | binding result
2 | B2 | binds
3 | B3 | binds
4 | B4 | binds

Target: T2, CD83-His (ectodomain of human CD83 with …)
Assay: ELISA on coated CD83-His, detection with anti-kappa-HRP antibody, absorbance at 450 nm
Method: The reactivity of purified hFab 1F7 to CD83 was analysed by ELISA.

Row | Binder | EC50 (read off the curve) [µg/mL]
5 | B1 | ~2

Target: T2, CD83-His (ectodomain of human CD83 with …)
Assay: relative binding of light chain shuffled clones against 1F7; CD83 construct not given

Row | Binder | binding result
6 | B2 | binds
7 | B5 | binds
8 | B6 | binds
9 | B7 | binds
10 | B8 | binds
11 | B9 | binds
12 | B3 | binds
13 | B4 | binds
14 | B10 | binds
15 | B11 | binds
16 | B12 | binds
